The source of these data is article PMC6486709.

Substrate in the data set: C/C(=C\Cc1c(O)c(Cl)c(C)c(C=O)c1O)CC/C=C(\C)[C@@H](O)C[C@@H]1OC1(C)C
The experiment in a line: cells, lysate or membranes. The conditions noted are these: microsomal fraction of ascI-expressing yeast.

B1: AscI (Acremonium egyptiacum) (protein)
chain: MPQLAGKLILAGLIPLGAWVLHGFASCNGLIQMFEDFGKQTVLSDGVTDYTGAFTGLEGLDRLLRTLLNFFWPVANGHDWALSLHAFMFAGQGVPLLVLNMLEGARPGNKSLVVSYVTVFGILYMVVGLAIMAPLYLFLHLLTSRTATAPSKAKVAVDPNTAKAVGFGVFVGYVLPTIFMSLPHPSLLSTDTKVLSVVFWQAVPLWASVCAYFASTALGQSATSRSSSNLPSALGAVYAASLIIATATHVATFAISANLSDTWSGIFTFLIPPNPFNTDMRISSFLEGATWFLQWDYTMMSLAYMVWAIGIRHGVEVPRSSHHFETLGKIALRSMAKLLVMGPIGAALSLVWERDQLLWQLDSESGEKGEKNRSRRMSRKWMFS
In the case of B1, the Km was 50.4 ± 11.1 µM.
